Measurements taken from US20160304570A1.
Like-named read-outs stand apart in the source and are kept apart here.

Key:
Assay in all cases: cell-based or functional assay
[1] = molecular target: human voltage-gated sodium channel Nav1.7 (human) (UniProt Q15858)
[2] = molecular target: human voltage-gated sodium channel Nav1.3 (human) (UniProt Q9NY46)
[3] = molecular target: human voltage-gated sodium channel Nav1.5 (human) (UniProt Q14524)
[4] = molecular target: human voltage-gated sodium channel Nav1.7 (human) (UniProt Q15858); remark: listed apart in the source
[5] = molecular target: human voltage-gated sodium channel Nav1.3 (human) (UniProt Q9NY46); remark: listed apart in the source
[6] = molecular target: human voltage-gated sodium channel Nav1.5 (human) (UniProt Q14524); remark: listed apart in the source
[7] = molecular target: human voltage-gated sodium channel Nav1.3 (human) (UniProt Q9NY46); remark: listed apart in the source
[8] = molecular target: human voltage-gated sodium channel Nav1.7 (human) (UniProt Q15858); remark: listed apart in the source
[9] = molecular target: human voltage-gated sodium channel Nav1.3 (human) (UniProt Q9NY46); remark: listed apart in the source
[10] = molecular target: human voltage-gated sodium channel Nav1.5 (human) (UniProt Q14524); remark: listed apart in the source
[11] = molecular target: human Nav1.5 voltage-gated sodium channel (human) (UniProt Q14524)
[12] = molecular target: human Nav1.7 (human) (UniProt Q15858)
[13] = molecular target: human Nav1.5 (human) (UniProt Q14524)
[14] = molecular target: human Nav1.3 voltage-gated sodium channel (human) (UniProt Q9NY46)
[15] = molecular target: human ERG (hERG) potassium channel (human) (UniProt Q12809)
[16] = molecular target: human Nav1.3 (human) (UniProt Q9NY46)
[17] = molecular target: human Nav1.7 voltage-gated sodium channel (human) (UniProt Q15858)
[18] = molecular target: human voltage-gated sodium channel Nav1.7 (human) (UniProt Q15858); remark: listed apart in the source
[19] = molecular target: human voltage-gated sodium channel Nav1.3 (human) (UniProt Q9NY46); remark: listed apart in the source
[20] = molecular target: human voltage-gated sodium channel Nav1.5 (human) (UniProt Q14524); remark: listed apart in the source
[21] = molecular target: human voltage-gated sodium channel Nav1.7 (human) (UniProt Q15858); remark: listed apart in the source
[22] = molecular target: human voltage-gated sodium channel Nav1.3 (human) (UniProt Q9NY46); remark: listed apart in the source
[23] = molecular target: human voltage-gated sodium channel Nav1.5 (human) (UniProt Q14524); remark: listed apart in the source
[24] = molecular target: human voltage-gated sodium channel Nav1.7 (human) (UniProt Q15858); remark: listed apart in the source
[25] = molecular target: human voltage-gated sodium channel Nav1.3 (human) (UniProt Q9NY46); remark: listed apart in the source
[26] = molecular target: human voltage-gated sodium channel Nav1.5 (human) (UniProt Q14524); remark: listed apart in the source
[27] = molecular target: human Nav1.5 voltage-gated sodium channel (human) (UniProt Q14524); remark: listed apart in the source
[28] = molecular target: human Nav1.3 voltage-gated sodium channel (human) (UniProt Q9NY46); remark: listed apart in the source
[29] = molecular target: human Nav1.7 voltage-gated sodium channel (human) (UniProt Q15858); remark: listed apart in the source
[30] = molecular target: human voltage-gated sodium channel Nav1.4 (human) (UniProt P35499)
[31] = molecular target: human Nav1.4 voltage-gated sodium channel (human) (UniProt P35499)
human Nav1.4 voltage-gated sodium channel (human), sequence (P35499 whole entry): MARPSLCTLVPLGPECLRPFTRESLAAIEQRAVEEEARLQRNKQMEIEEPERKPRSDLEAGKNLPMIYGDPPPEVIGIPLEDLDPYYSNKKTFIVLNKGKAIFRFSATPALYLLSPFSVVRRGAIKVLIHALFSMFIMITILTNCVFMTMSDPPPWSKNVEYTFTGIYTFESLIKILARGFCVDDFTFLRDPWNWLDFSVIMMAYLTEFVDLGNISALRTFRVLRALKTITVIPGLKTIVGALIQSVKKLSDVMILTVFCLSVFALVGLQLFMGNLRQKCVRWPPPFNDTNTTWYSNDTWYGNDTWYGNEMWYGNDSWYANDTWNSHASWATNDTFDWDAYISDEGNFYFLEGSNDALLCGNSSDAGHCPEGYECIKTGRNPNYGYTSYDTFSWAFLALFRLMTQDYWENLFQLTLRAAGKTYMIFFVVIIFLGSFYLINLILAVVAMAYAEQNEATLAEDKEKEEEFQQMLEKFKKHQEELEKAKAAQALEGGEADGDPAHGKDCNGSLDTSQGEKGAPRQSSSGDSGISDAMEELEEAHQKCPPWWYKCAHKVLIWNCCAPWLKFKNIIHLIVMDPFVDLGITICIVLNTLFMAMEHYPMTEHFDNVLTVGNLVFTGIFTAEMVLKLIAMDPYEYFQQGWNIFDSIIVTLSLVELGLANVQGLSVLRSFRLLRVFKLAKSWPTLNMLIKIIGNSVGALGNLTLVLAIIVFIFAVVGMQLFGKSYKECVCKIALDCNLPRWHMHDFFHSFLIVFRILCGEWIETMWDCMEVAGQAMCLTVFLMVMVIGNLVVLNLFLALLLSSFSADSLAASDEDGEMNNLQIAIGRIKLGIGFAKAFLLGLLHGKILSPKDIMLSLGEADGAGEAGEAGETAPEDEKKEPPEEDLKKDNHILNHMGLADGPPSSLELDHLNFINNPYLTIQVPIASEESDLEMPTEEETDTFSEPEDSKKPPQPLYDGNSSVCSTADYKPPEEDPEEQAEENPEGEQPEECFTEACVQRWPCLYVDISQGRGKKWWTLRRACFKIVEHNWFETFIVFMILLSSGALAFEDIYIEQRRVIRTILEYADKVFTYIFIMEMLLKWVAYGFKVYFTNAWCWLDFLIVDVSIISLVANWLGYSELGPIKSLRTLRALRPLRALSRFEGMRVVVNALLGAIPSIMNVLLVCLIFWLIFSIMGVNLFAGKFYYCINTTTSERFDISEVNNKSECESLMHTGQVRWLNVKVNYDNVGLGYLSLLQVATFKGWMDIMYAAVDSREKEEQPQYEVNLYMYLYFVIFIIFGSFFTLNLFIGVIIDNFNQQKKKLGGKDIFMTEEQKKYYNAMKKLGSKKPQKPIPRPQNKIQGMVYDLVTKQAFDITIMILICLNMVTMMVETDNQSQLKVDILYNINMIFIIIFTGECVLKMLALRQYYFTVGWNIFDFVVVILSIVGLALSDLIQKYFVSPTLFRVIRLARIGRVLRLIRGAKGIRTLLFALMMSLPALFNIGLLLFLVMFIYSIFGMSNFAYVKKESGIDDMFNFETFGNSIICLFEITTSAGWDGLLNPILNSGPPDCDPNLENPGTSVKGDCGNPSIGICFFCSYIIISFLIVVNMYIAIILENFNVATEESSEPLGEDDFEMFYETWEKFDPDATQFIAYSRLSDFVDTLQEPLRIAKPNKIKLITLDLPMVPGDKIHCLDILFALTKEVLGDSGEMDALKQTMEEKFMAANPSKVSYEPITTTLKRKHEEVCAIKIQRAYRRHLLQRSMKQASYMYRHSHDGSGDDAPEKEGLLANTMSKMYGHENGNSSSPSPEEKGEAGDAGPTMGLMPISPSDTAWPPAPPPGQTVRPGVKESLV

human voltage-gated sodium channel Nav1.7 (human), sequence (Q15858 whole entry): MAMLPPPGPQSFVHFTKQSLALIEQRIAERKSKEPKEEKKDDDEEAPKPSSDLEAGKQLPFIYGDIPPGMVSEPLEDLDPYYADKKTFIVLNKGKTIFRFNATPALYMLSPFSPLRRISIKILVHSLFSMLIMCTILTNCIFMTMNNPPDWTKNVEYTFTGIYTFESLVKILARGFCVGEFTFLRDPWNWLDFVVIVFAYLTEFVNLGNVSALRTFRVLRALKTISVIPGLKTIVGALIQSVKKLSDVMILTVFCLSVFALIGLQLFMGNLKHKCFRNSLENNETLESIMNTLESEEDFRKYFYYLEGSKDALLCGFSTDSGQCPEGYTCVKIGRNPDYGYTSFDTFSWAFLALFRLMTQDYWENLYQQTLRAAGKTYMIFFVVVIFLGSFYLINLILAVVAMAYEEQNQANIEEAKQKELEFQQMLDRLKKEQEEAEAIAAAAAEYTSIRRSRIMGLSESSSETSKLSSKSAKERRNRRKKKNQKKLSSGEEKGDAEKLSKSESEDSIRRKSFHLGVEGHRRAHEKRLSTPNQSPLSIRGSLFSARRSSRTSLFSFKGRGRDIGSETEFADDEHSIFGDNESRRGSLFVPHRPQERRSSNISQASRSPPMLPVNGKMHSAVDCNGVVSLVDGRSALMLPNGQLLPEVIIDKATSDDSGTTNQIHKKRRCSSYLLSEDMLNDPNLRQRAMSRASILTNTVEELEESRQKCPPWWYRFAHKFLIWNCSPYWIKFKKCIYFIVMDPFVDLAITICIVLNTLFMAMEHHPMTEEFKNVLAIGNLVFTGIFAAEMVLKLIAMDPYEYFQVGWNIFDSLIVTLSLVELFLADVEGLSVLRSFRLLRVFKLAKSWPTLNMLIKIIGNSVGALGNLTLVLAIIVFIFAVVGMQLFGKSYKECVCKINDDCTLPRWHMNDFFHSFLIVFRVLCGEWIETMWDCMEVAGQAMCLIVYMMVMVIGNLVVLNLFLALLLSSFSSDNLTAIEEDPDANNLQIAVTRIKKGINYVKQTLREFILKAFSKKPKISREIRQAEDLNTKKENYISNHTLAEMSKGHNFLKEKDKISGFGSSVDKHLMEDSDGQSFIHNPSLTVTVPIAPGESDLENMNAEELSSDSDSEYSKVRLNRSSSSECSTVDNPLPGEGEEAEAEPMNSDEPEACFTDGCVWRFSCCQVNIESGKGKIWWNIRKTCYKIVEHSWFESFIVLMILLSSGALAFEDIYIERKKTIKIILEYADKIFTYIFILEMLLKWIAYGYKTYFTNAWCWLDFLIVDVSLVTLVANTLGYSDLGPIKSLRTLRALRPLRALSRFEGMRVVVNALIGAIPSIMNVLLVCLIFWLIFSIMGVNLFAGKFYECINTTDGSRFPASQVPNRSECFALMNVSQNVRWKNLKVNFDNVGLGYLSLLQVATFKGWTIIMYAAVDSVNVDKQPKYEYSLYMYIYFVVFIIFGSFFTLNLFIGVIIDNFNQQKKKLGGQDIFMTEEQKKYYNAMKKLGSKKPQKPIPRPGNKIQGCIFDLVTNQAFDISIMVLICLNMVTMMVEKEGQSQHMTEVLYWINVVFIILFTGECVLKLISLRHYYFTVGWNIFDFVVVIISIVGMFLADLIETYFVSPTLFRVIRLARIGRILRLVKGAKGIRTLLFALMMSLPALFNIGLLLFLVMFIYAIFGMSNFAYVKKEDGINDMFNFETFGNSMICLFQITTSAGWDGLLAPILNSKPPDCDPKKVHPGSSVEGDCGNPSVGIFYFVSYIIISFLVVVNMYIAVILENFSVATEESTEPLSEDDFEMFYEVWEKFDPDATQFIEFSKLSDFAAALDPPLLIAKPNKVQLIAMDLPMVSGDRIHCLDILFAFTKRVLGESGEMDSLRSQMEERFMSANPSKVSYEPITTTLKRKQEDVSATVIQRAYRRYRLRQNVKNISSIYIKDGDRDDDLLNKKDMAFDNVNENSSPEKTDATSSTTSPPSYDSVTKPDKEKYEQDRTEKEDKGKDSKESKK
human Nav1.7 voltage-gated sodium channel (human), sequence (Q15858 whole entry): as above
human voltage-gated sodium channel Nav1.4 (human), sequence (P35499 whole entry): as the sequence (P35499 whole entry) above
human Nav1.7 (human), sequence (Q15858 whole entry): as the sequence (Q15858 whole entry) above
human ERG (hERG) potassium channel (human), sequence (Q12809 whole entry): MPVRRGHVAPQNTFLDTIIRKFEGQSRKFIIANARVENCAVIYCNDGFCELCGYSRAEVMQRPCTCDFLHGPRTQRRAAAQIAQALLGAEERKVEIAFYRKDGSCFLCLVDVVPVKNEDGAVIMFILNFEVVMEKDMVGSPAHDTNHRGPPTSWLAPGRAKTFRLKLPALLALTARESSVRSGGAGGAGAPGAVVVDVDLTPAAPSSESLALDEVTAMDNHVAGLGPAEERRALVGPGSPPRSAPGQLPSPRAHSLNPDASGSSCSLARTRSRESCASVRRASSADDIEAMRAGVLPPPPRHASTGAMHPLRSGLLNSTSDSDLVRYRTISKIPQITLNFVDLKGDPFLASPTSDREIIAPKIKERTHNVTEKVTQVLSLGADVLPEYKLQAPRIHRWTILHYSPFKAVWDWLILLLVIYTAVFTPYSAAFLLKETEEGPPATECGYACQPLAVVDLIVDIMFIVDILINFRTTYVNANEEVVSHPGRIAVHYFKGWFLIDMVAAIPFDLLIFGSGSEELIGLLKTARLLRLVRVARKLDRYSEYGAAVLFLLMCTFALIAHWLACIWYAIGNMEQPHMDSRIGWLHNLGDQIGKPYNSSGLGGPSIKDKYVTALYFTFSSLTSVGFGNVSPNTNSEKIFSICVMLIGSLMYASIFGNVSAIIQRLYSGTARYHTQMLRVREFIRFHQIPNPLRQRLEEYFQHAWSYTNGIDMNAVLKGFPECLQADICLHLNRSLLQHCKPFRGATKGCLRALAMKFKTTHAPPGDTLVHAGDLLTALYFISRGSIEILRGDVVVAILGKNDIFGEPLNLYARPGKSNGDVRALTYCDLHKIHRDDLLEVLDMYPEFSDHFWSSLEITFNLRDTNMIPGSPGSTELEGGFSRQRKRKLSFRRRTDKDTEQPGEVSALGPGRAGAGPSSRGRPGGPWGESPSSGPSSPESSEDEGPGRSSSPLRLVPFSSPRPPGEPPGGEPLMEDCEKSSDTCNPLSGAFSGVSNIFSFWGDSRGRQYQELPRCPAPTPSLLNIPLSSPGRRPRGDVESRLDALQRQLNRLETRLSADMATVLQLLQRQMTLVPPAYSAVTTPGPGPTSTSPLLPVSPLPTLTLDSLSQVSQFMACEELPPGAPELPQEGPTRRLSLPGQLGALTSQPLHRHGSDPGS

GpTx-1(1-34) (peptide)
IWQ Use Nav1.7 [1]: 0.08 µM
IWQ Use Nav1.3 [2]: 0.08 µM
IWQ Use Nav1.5 [3]: 13.1 µM
IWQ Use Nav1.7 [4]: 0.08 µM
IWQ Use Nav1.3 [5]: 0.08 µM
IWQ Use Nav1.5 [6]: 13.1 µM
IWQ Use Nav1.3 [7]: 0.08 µM
IWQ Use Nav1.7 [8]: 0.08 µM
IWQ Use Nav1.7 (µM) (IC50, IonWorks Quattro population patch clamp) [8]: 0.08 µM
IWQ Use Nav1.7 (µM): IC50 of peak inward current, IonWorks Quattro [8]: 0.08 µM
IWQ Use Nav1.7 (µM); IC50 of peak inward current, IonWorks Quattro [8]: 0.08 µM
Nav1.7 Use IC50 (PatchXpress whole cell patch clamp) [8]: 5 nM
Nav1.7 Use IC50 (µM); PatchXpress whole cell patch clamp electrophysiology [8]: 0.005 µM
IWQ Use Nav1.3 [9]: 0.08 µM
IWQ Use Nav1.3 (µM) (IC50, IonWorks Quattro population patch clamp) [9]: 0.08 µM
IWQ Use Nav1.3 (µM): IC50 of peak inward current, IonWorks Quattro [9]: 0.08 µM
IWQ Use Nav1.3 (µM); IC50 of peak inward current, IonWorks Quattro [9]: 0.08 µM
Nav1.3 Use IC50 (PatchXpress whole cell patch clamp) [9]: 0.01 µM
IWQ Use Nav1.5 [10]: 13.1 µM
IWQ Use Nav1.5 (µM) (IC50, IonWorks Quattro population patch clamp) [10]: 13.1 µM
IWQ Use Nav1.5 (µM): IC50 of peak inward current, IonWorks Quattro [10]: 13.1 µM
IWQ Use Nav1.5 (µM); IC50 of peak inward current, IonWorks Quattro [10]: 13.1 µM
Nav1.5 Use IC50 (PatchXpress whole cell patch clamp) [10]: > 10 µM
IC50, hNav1.5 current, PatchXpress counterscreen [11]: 9.8 µM
IC50, peak inward hNav1.5 current, whole cell patch clamp, cells held at -140 mV [11]: 8.9 µM
IWQ Use Nav1.5 [11]: 13.1 µM
IWQ Use Nav1.5 (µM): IC50 of peak inward current block, IonWorks Quattro [11]: 13.1 µM
IWQ Use Nav1.5 (µM); IC50 of peak inward current, IonWorks Quattro [11]: 13.1 µM
IWQ Use Nav1.7 (µM) [IC50, IonWorks Quattro electrophysiology] [12]: 0.08 µM
IWQ Use Nav1.5 (µM) [IC50, IonWorks Quattro electrophysiology] [13]: 13.1 µM
IC50, peak inward hNav1.3 current, whole cell patch clamp, cells held at -140 mV [14]: 16.8 nM
IWQ Use Nav1.3 [14]: 0.08 µM
IWQ Use Nav1.3 (µM): IC50 of peak inward current block, IonWorks Quattro [14]: 0.08 µM
IWQ Use Nav1.3 (µM); IC50 of peak inward current, IonWorks Quattro [14]: 0.08 µM
IC50, hERG current, PatchXpress counterscreen [15]: > 10 µM
IWQ Use Nav1.3 (µM) [IC50, IonWorks Quattro electrophysiology] [16]: 0.08 µM
IC50, peak inward hNav1.7 current, whole cell patch clamp, cells held at -140 mV [17]: 7.4 nM
IWQ Use Nav1.7 [17]: 0.08 µM
IWQ Use Nav1.7 (µM): IC50 of peak inward current block, IonWorks Quattro [17]: 0.08 µM
IWQ Use Nav1.7 (µM); IC50 of peak inward current, IonWorks Quattro [17]: 0.08 µM
inhibition of NaV1.7 activity, IonWorks Quattro, venom sub-fraction 11 [17]: > 90%
IWQ Use Nav1.7 [18]: 0.08 µM
IWQ Use Nav1.3 [19]: 0.08 µM
IWQ Use Nav1.5 [20]: 13.1 µM
IWQ Use Nav1.7 (µM); IC50 of peak inward current, IonWorks Quattro [21]: 0.08 µM
IWQ Use Nav1.3 (µM); IC50 of peak inward current, IonWorks Quattro [22]: 0.08 µM
IWQ Use Nav1.5 (µM); IC50 of peak inward current, IonWorks Quattro [23]: 13.1 µM
IWQ Use Nav1.7 (µM) (IC50, IonWorks Quattro population patch clamp) [24]: 0.08 µM
IWQ Use Nav1.3 (µM) (IC50, IonWorks Quattro population patch clamp) [25]: 0.08 µM
IWQ Use Nav1.5 (µM) (IC50, IonWorks Quattro population patch clamp) [26]: 13.1 µM
IWQ Use Nav1.5 [27]: 13.1 µM
IWQ Use Nav1.3 [28]: 0.08 µM
IWQ Use Nav1.7 [29]: 0.08 µM

Huwentoxin-IV (peptide)
Nav1.7 Use IC50 (PatchXpress whole cell patch clamp) [8]: 32 nM
Nav1.3 Use IC50 (PatchXpress whole cell patch clamp) [9]: 0.022 µM
Nav1.4 Use IC50 (PatchXpress whole cell patch clamp) [30]: 4.5 µM

ProTxII (peptide)
Nav1.7 Use IC50 (PatchXpress whole cell patch clamp) [8]: 2 nM
Nav1.3 Use IC50 (PatchXpress whole cell patch clamp) [9]: 0.015 µM
Nav1.5 Use IC50 (PatchXpress whole cell patch clamp) [10]: 0.104 µM
Nav1.4 Use IC50 (PatchXpress whole cell patch clamp) [30]: 0.032 µM

Ac-GpTx-1(1-34) (peptide)
Nav1.5 Use IC50 (µM), PatchXpress electrophysiology [11]: > 10 µM

GpTx-2 (peptide)
IWQ Use Nav1.5 [27]: 7.21 µM
IWQ Use Nav1.3 [28]: 1.15 µM
IWQ Use Nav1.7 [29]: 4.34 µM

GpTx-4 (peptide)
IWQ Use Nav1.4 [31]: 11 µM
IWQ Use Nav1.5 [27]: 10.4 µM
IWQ Use Nav1.3 [28]: 4.92 µM
IWQ Use Nav1.7 [29]: 9.25 µM

GpTx-3 (peptide)
IWQ Use Nav1.4 [31]: 20 µM
IWQ Use Nav1.5 [27]: 7.8 µM
IWQ Use Nav1.3 [28]: 9.37 µM
IWQ Use Nav1.7 [29]: 8.93 µM

[D-Phe5]GpTx-1(1-34) (peptide)
IWQ Use Nav1.7 (µM): IC50 of peak inward current, IonWorks Quattro [17]: 1.23 µM

GpTx-1(1-34)-FreeAcid (peptide)
IWQ Use Nav1.3 (µM) (IC50, IonWorks Quattro population patch clamp) [9]: 0.54 µM
IWQ Use Nav1.5 (µM) (IC50, IonWorks Quattro population patch clamp) [10]: 9.44 µM

GpTx-6(1-35) (peptide)
IWQ Use Nav1.4 [31]: 17.4 µM
IWQ Use Nav1.5 [27]: 14.6 µM
IWQ Use Nav1.3 [28]: 1.7 µM
IWQ Use Nav1.7 [29]: 9.6 µM

GpTx-6(1-34) (peptide)
IWQ Use Nav1.4 [31]: 4.1 µM
IWQ Use Nav1.5 [27]: 7.3 µM
IWQ Use Nav1.3 [28]: 0.54 µM
IWQ Use Nav1.7 [29]: 1.3 µM

[D-Phe34]GpTx-1(1-34) (peptide)
IWQ Use Nav1.7 [18]: 0.98 µM
IWQ Use Nav1.3 [19]: 0.52 µM
IWQ Use Nav1.5 [20]: 20.7 µM

[Ala5;Phe6;Leu26;Arg28]GpTx-1(1-34) (peptide)
Nav1.7 Use IC50 (PatchXpress electrophysiology) [8]: 0.002 µM
Nav1.3 Use IC50 (PatchXpress electrophysiology) [9]: 0.008 µM
Nav1.5 Use IC50 (PatchXpress electrophysiology) [10]: > 10 µM
IWQ Use Nav1.4 (µM); IC50 of peak inward current, IonWorks Quattro [31]: 5 µM
IWQ Use Nav1.5 (µM); IC50 of peak inward current, IonWorks Quattro [27]: 5 µM
IWQ Use Nav1.3 (µM); IC50 of peak inward current, IonWorks Quattro [28]: 0.04 µM
IWQ Use Nav1.7 (µM); IC50 of peak inward current, IonWorks Quattro [29]: 0.05 µM

Huwentoxin-I (peptide)
Nav1.3 Use IC50 (PatchXpress whole cell patch clamp) [9]: 0.905 µM
Nav1.5 Use IC50 (PatchXpress whole cell patch clamp) [10]: > 30 µM
Nav1.4 Use IC50 (PatchXpress whole cell patch clamp) [30]: 24.9 µM
